B1: w876 clonotype 13 TCR (TCR)
TCR alpha: CVVTDTSGGGADGLTF
TCR beta: CASSLAGLAGTDTQYF
B2: w830 clonotype 3 TCR (TCR)
TCR alpha: CAYPSTDKLIF
TCR beta: CASSILGASNQPQHF
B3: w876 clonotype 8 TCR (TCR)
TCR alpha: CVVYASKIIF
TCR beta: CASSDTPDLNTEAFF
B4: w876 clonotype 14 TCR (TCR)
TCR alpha: CVVPSAGKSTF
TCR beta: CASSEFAGQETQYF

In this experiment the target is MCPyV KLL epitope presented by HLA-A*02:01 on cells (human; Merkel cell polyomavirus), A*02:0. Put plainly: cell-based or functional assay.
As for B1, the EC50 (ng/uL DNA), IFN-γ secretion, COS-7 + HLA-A*02:01 + tLTAg plasmid is 3.9 ng/µL DNA.

Regarding B2, the EC50 (ng/uL DNA), IFN-γ secretion, COS-7 + HLA-A*02:01 + tLTAg plasmid stood at 270 ng/µL DNA.

Take B3: the EC50 (ng/uL DNA), IFN-γ secretion, COS-7 + HLA-A*02:01 + tLTAg plasmid was found to be 4.2 ng/µL DNA.

As for B4, the EC50 (ng/uL DNA), IFN-γ secretion, COS-7 + HLA-A*02:01 + tLTAg plasmid was found to be 5.4 ng/µL DNA.

Source of the values: patent US20200030378A1.
